According to patent publication US5831003A, “Peptides which bind to prothrombin and thrombin” (Bayer Corporation, priority 1996, dated 1998):
Ends that are not written are not given here.

Molecular target: T1, α-thrombin (Homo sapiens, UniProt P00734)
T1 construct: α-Thrombin is the active form of the plasma serine protease zymogen, prothrombin; purchased Enzyme Research Labs (South Bend, Ind.)
Assay: Confirmatory binding assay in column chromatographic format, peptides synthesized on A-Totda-Toyopearl
Conditions: for Absorbance, 280 nm 1M NaCl Eluate / Absorbance, 280 nm 2% Acetic Acid: integration of A280; for binding of thrombin to peptide resin (in words): summary of Table 2
Procedure: Confirmatory binding assays were performed in a column chromatographic format on a microbore HPLC using individual peptide sequences synthesized directly onto the Toyopearl 650 M Chelate resin which had been modified with Totda followed by an alanine residue (A-Totda-Toyopearl), at a final substitution density of 0.2 mmol/g resin. […] The endpoint was a dose-dependent increase in the acid eluate in the thrombin contactings, and quantification was by integration of the absorbance at 280 nm.

| Substance | Absorbance, 280 nm 1M NaCl Eluate (50 μg α-thrombin applied) | Absorbance, 280 nm 2% Acetic Acid (50 μg α-thrombin applied) | Absorbance, 280 nm 1M NaCl Eluate (100 μg α-thrombin applied) | Absorbance, 280 nm 2% Acetic Acid (100 μg α-thrombin applied) | Absorbance, 280 nm 1M NaCl Eluate (200 μg α-thrombin applied) | Absorbance, 280 nm 2% Acetic Acid (200 μg α-thrombin applied) | binding of thrombin to peptide resin (in words) | dose dependence of thrombin in the acid eluant (in words) (50, 100 and 200 μg α-thrombin) |
| --- | --- | --- | --- | --- | --- | --- | --- | --- |
| ERPYHG (not fully specified (C-terminus)) [peptide synthesized on A-Totda-Toyopearl resin] | 0.00 | 0.00 | 0.18 | 0.00 | 0.69 | 0.00 | not | – |
| ERPYKG (not fully specified (C-terminus)) [peptide synthesized on A-Totda-Toyopearl resin] | 0.23 | 0.41 | 0.23 | 0.99 | 0.26 | 2.38 | bound thrombin | – |
| FEPANP (not fully specified (C-terminus)) [peptide synthesized on A-Totda-Toyopearl resin] | 0.00 | 0.15 | 0.00 | 0.29 | 0.10 | 0.45 | bound thrombin | – |
| GFRKGP (not fully specified (C-terminus)) [peptide synthesized on A-Totda-Toyopearl resin] | 0.12 | 0.41 | 0.15 | 0.77 | 0.25 | 1.71 | bound thrombin | – |
| GFRNGP [GERNGP] | 0.00 | 0.71 | 0.00 | 1.42 | 0.13 | 2.73 | bound thrombin | – |
| HQLWGSH | np | 0.58 | np | 0.95 | np | 1.76 | enhanced binding | – |
| LFAPTL | np | 0.18 | np | 0.44 | np | 1.25 | bound thrombin | – |
| LTPFAV (not fully specified (C-terminus)) [peptide synthesized on A-Totda-Toyopearl resin] | np | 0.00 | np | 0.00 | np | 0.00 | – | – |
| PFAPTL | np | np | np | np | np | np | not | – |
| PFPYAW (not fully specified (C-terminus)) [peptide synthesized on A-Totda-Toyopearl resin] | np | 0.50 | np | 1.05 | np | 1.10 | bound thrombin | – |
| PFPYGW (not fully specified (C-terminus)) [peptide synthesized on A-Totda-Toyopearl resin] | np | 0.47 | np | 0.79 | np | 1.37 | bound thrombin | – |
| PFPYVW (not fully specified (C-terminus)) [peptide synthesized on A-Totda-Toyopearl resin] | np | 2.82 | np | 2.14 | np | 3.32 | bound thrombin | not in a dose dependent manner |
| RQLWQSH [RQLWGSH, variant of QLWGSH with added amino-terminal arginine, on A-Totda-Toyopearl resin] | np | 0.75 | np | 1.49 | np | 2.83 | enhanced binding | – |
| SVRPFL (not fully specified (C-terminus)) [peptide synthesized on A-Totda-Toyopearl resin] | np | 0.57 | np | 0.71 | np | 2.06 | bound thrombin | – |
| VFPYAW (not fully specified (C-terminus)) [peptide synthesized on A-Totda-Toyopearl resin] | 0.16 | 1.48 | 0.18 | 1.57 | np | 3.59 | bound thrombin | – |
| VFPYGW (not fully specified (C-terminus)) [peptide synthesized on A-Totda-Toyopearl resin] | np | 0.88 | np | 1.46 | np | 2.01 | bound thrombin | – |
| VFPYVW (not fully specified (C-terminus)) [peptide synthesized on A-Totda-Toyopearl resin] | np | 0.81 | np | 1.21 | np | 1.81 | bound thrombin | – |
| VTPFAV (not fully specified (C-terminus)) [peptide synthesized on A-Totda-Toyopearl resin] | np | 0.00 | np | 0.00 | np | 0.00 | – | – |
| YTPFAV (not fully specified (C-terminus)) [peptide synthesized on A-Totda-Toyopearl resin] | np | 0.16 | np | 0.28 | np | 0.34 | bound thrombin | – |
